Test results published in US20140369940A1 (Biogen, published 2014).
Blank lines part the entries; values can stand above or below the binder they belong to. Ends that are not written are not given here.

Key:
[1] = molecular target: recombinant α-synuclein truncation aa 1-60 (human, UniProt P37840 1-60); test: direct ELISA
[2] = molecular target: T1, recombinant human β-synuclein (wt) (human, UniProt Q16143 1-134); test: direct ELISA
T1 construct: also called wt β-synuclein

[3] = molecular target: T2, synthetic biotinylated α-synuclein peptide 5-30 (human, biotinylated (position not given)); test: in-solution ELISA, antibody coated at 2 µg/ml, biotinylated peptide
T2 construct: also called α-synuclein 5-30

[4] = molecular target: T3, human α-synuclein pepscan peptide A02 (residues 5-20) (human, also: C-terminally coupled via flexible linker to cellulose membrane); test: pepscan, immunoblotting
T3 construct: Printed as residues 5-20, although a 15-mer with 11 residues overlap to A01 would be 5-19
T3 peptide: MKGLSKAKEGVVAAAE

T1 sequence (Q16143 whole entry): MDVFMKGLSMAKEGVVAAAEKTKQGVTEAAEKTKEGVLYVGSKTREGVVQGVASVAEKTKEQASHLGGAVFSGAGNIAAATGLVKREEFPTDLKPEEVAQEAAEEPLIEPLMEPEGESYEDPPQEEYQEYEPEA

binding result [1]: no binding (tested: coated at 2 ug/ml)
B1: recombinant human monoclonal antibody NI-202.21D11 (antibody, V domains shown)
VH: EVQLVESGAEVKKPGASVKVSCKASGYTFTNYAMHWVRQAPGQRLEWMGWINAGNGKRKYSQKFQDRVTINRDTSASTIYMELSSLGSEDTAVYYCAREEDHAGSGSYLSMDVWGQGTLVTVSS
VL: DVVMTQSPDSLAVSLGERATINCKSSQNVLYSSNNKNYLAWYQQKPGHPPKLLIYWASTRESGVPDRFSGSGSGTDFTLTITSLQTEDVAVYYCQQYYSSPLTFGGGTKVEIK
notes: Expressed recombinantly in HEK293 or CHO cells as a complete antibody (methods: human IgG1 or chimeric mouse IgG2a constant regions); conditioned medium used directly unless otherwise stated

binding result [2]: no binding
binding result [3]: no binding
binding result [4]: no binding
B2: recombinant human monoclonal antibody NI-202.12F4 (antibody, V domains shown)
VH: EVQLVQSGGGLVEPGGSLRLSCAVSGFDFEKAWMSWVRQAPGQGLQWVARIKSTADGGTTSYAAPVEGRFIISRDDSRNMLYLQMNSLKTEDTAVYYCTSAHWGQGTLVTVSS
VL: QSVLTQPPSVSVSPGQTARITCSGEALPMQFAHWYQQRPGKAPVIVVYKDSERPSGVPERFSGSSSGTTATLTITGVQAEDEADYYCQSPDSTNTYEVFGGGTKLTVL
notes: Lambda light chain; HEK293 or CHO conditioned medium
